In PMC3630167 (2013) one finds Kd data, which are given here for six molecules.

To fix the notation:
T1: synthetic (γ-D-Glu)5 (not fully specified (residues 1, 2, 3, 4, 5))
T1 peptide: EEEEE

B1: mAb F26G3 IgG1 subclass switch variant (antibody, V domains shown)
VH: EVQLVESGGGLVQPKGSLKLSCAASGFTFNTYAMNWVRQAPGKGLEWVARIRSKSNNYATYYADSVKDRFTISRDDSQSMLYLQMNNLKTEDTAMYYCVRGYYGWDYWGQGTSVTVSS
VL: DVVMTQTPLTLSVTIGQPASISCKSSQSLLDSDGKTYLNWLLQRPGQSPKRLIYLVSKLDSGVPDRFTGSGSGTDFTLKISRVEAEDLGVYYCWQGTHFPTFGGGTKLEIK
B2: mAb F24F2 IgG2b subclass switch variant (antibody, V domains shown)
VH: EVQLVESGGGLVQPKGSLKLSCAASGFTFNTYAMNWVRQAPGKGLEWVARIRSKSNNYATYYADSVKDRFTISRDDSQSMLYLQMNNLKTEDTAMYYCVRGLRYLDYWGQGTTLTVSS
VL: not shown
B3: mAb F24F2 IgG1 subclass switch variant (antibody, V domains shown)
VH: EVQLVESGGGLVQPKGSLKLSCAASGFTFNTYAMNWVRQAPGKGLEWVARIRSKSNNYATYYADSVKDRFTISRDDSQSMLYLQMNNLKTEDTAMYYCVRGLRYLDYWGQGTTLTVSS
VL: not shown
B4: mAb F26G3 IgG2a subclass switch variant (antibody, V domains shown)
VH: EVQLVESGGGLVQPKGSLKLSCAASGFTFNTYAMNWVRQAPGKGLEWVARIRSKSNNYATYYADSVKDRFTISRDDSQSMLYLQMNNLKTEDTAMYYCVRGYYGWDYWGQGTSVTVSS
VL: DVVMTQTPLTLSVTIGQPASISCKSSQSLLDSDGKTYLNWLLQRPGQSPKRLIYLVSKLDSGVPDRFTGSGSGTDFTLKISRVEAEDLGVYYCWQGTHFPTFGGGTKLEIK
B5: mAb F24F2 IgG2a subclass switch variant (antibody, V domains shown)
VH: EVQLVESGGGLVQPKGSLKLSCAASGFTFNTYAMNWVRQAPGKGLEWVARIRSKSNNYATYYADSVKDRFTISRDDSQSMLYLQMNNLKTEDTAMYYCVRGLRYLDYWGQGTTLTVSS
VL: not shown
B6: mAb F26G3 IgG2b subclass switch variant (antibody, V domains shown)
VH: EVQLVESGGGLVQPKGSLKLSCAASGFTFNTYAMNWVRQAPGKGLEWVARIRSKSNNYATYYADSVKDRFTISRDDSQSMLYLQMNNLKTEDTAMYYCVRGYYGWDYWGQGTSVTVSS
VL: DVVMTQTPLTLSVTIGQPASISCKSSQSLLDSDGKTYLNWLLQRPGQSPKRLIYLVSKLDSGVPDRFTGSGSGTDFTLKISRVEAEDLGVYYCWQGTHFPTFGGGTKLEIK

No end group written: not given here.

This experiment has as its target T1, synthetic (γ-D-Glu)5.
As a reminder, the Kd is the constant that tells how readily two partners part at equilibrium. Turning to B1, binding was put at a Kd of 13 µM.
B2 displayed a Kd of 9 µM.
B3: the Kd is 18 µM.
B4 returned a Kd of 45 µM.
As for B5, the Kd came to 18 µM.
In the case of B6, the dissociation constant Kd was 6.7 µM.
